Data taken from article PMC4175418 (Methods in molecular biology (Clifton, N.J.), 2014).

Molecular target: HIV-1 Rev (HIV-1, UniProt P04618)
Sequence (P04618 whole entry): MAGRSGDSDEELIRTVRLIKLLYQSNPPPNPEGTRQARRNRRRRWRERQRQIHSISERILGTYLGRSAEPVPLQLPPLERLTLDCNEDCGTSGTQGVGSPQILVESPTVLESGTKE

B1: anti-Rev Fab (chimeric rabbit/human) (Fab, V domains shown)
VH: QEQLVESGGRLVTPGTALTLTCKVSGFSLSGFWLNWVRQAPGKGLEWVGAIYRGSGSEWYASWAKGRFTISDTSTTVTLKLTSPTTEDTATYFCAADTTDNGYFTIWGPGTLVTVSS
VL: ELVMTQTPSSVSEPVGGTVTIKCQASQSISSWLSWYQQKPGQPPKLLIYDASNLASGVPSRFMGSGSGTEYTLTISGVQREDAATYYCLGGYPAASYRTAFGGGTELEII
Kd: < 0.1 nM
stoichiometry N: 1
